Laboratory results as given in paper doi:10.1101/2023.03.27.534461 (bioRxiv, 2023).

Target: the molecule itself
Assay: cryo-EM structure; 100 nM unmodified nucleosome with 10 μM Bre1-Bre1-Rad6 fusion protein, 20 mM HEPES pH 7.5, 50 mM NaCl, 1 mM DTT, room temperature 30 min; cross-linked with glutaraldehyde, then Superdex 200; three states resolved

B1: Bre1 591–700 (domain or fragment, yeast, UniProt Q07457 591-700, looked up)
chain: KLNDTEIELKHFKQKASHLESKCEKLHDTLFRGNNKNKGSSDEALVEELANFRTLVYCSLCSKNWKNMAIKTCGHVFCENCCKERLAARMRKCPTCNKAFSSNDLLTVHL
notes: Bre1, yeast E3 ubiquitin ligase, residues 591-700: coiled coil that mediates dimerization and RING domain; In the structure the two copies of Bre1(591-700) stood on one chain of the fusion m1, joined by a (GGS)4 linker; written here as a molecule of its own for the pairs Bre1 with H2A and Bre1 with Bre1; also called Bre1-A; Bre1-B; source: E. coli BL21(DE3)Rosetta2, purified, as part of the …
binding result: binds
